Measurements as given in publication PMC9482650, “Quantitative fragmentomics allow affinity mapping of interactomes” (Nature Communications, 2022).

T1: LNX2_2, Q8N448
T1 sequence (Q8N448 334-432, limits assumed, looked up): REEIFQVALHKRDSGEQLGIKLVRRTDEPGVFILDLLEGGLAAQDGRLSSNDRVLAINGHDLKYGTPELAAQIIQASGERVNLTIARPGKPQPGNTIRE

T2: GRIP1_3, Q9Y3R0
T2 sequence (Q9Y3R0 247-346, limits assumed, looked up): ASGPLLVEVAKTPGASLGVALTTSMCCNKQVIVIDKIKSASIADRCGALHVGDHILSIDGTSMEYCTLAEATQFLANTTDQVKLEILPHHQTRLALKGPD

T3: PDZD7_3, Q9H5P4
T3 sequence (Q9H5P4 857-944, limits assumed, looked up): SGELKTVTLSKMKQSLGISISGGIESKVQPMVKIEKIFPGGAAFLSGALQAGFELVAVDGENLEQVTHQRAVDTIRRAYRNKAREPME

T4: SNTA1, Q13424
T4 sequence (Q13424 82-180, limits assumed, looked up): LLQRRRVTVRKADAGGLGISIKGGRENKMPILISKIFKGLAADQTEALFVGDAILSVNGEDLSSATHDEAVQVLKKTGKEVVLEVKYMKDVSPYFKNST

T5: APBA3_1, O96018
T5 sequence (O96018 389-490, limits assumed, looked up): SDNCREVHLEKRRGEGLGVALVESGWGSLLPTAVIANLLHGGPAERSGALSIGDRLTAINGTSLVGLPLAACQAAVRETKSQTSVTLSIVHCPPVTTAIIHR

T6: SHANK1, Q9Y566
T6 sequence (Q9Y566 658-767, limits assumed, looked up): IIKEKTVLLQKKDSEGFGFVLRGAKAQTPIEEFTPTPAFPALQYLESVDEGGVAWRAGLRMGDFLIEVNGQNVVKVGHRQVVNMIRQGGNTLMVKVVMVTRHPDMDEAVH

T7: DVL3, Q92997
T7 sequence (Q92997 244-331, limits assumed, looked up): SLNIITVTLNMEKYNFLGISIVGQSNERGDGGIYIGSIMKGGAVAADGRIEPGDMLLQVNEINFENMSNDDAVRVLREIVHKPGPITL

T8: SNTG1, Q9NSN8
T8 sequence (Q9NSN8 52-150, limits assumed, looked up): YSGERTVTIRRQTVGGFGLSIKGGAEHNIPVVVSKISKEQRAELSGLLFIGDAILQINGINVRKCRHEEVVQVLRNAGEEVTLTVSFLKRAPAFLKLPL

T9: MPDZ_5, O75970
T9 sequence (O75970 695-796, limits assumed, looked up): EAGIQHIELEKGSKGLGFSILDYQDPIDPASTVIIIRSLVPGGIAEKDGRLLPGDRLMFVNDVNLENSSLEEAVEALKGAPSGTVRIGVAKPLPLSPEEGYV

T10: PCLO, Q9Y6V0
T10 sequence (Q9Y6V0 4491-4600, limits assumed, looked up): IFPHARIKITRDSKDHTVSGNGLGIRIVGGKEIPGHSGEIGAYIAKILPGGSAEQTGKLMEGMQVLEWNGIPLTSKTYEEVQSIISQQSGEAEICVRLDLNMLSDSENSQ

T11: MPDZ_10, O75970
T11 sequence (O75970 1624-1722, limits assumed, looked up): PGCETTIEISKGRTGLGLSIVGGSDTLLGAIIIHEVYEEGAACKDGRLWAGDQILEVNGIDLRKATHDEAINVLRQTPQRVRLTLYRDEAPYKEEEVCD

T12: RADIL, Q96JH8
T12 sequence (Q96JH8 971-1071, limits assumed, looked up): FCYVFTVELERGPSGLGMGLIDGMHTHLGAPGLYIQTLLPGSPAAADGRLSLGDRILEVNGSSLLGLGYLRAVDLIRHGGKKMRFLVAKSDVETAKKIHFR

T13: PARD3B_1, Q8TEW8
T13 sequence (Q8TEW8 196-299, limits assumed, looked up): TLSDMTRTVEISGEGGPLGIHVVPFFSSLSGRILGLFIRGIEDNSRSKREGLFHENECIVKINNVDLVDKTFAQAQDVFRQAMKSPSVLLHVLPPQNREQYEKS


Tests used:
Assay in all cases: holdup assay
Set-up in all cases: key: below the threshold = too weak to quantify, mostly under pKd 3.1 to 4
Conditions in all cases: plain residues with an end cap or a label only (N-terminal biotin on a linker: ado-ado)
MAGI1_2, Q96QZ7 = biological target: MAGI1_2, Q96QZ7
MAGI2_4, Q86UL8 = biological target: MAGI2_4, Q86UL8
LNX1_1, Q8TBB1 = biological target: LNX1_1, Q8TBB1
CASK, O14936 = biological target: CASK, O14936
LNX2_2, Q8N448 = biological target: T1, LNX2_2, Q8N448
FRMPD2_3, Q68DX3 = biological target: FRMPD2_3, Q68DX3
GRIP1_3, Q9Y3R0 = biological target: T2, GRIP1_3, Q9Y3R0
PDZD7_3, Q9H5P4 = biological target: T3, PDZD7_3, Q9H5P4
DLG4_2, P78352 = biological target: DLG4_2, P78352
IL16_1, Q14005 = biological target: IL16_1, Q14005
SNTA1, Q13424 = biological target: T4, SNTA1, Q13424
APBA3_1, O96018 = biological target: T5, APBA3_1, O96018
SHANK1, Q9Y566 = biological target: T6, SHANK1, Q9Y566
DVL3, Q92997 = biological target: T7, DVL3, Q92997
SNTG1, Q9NSN8 = biological target: T8, SNTG1, Q9NSN8
LIMK2, P53671 = biological target: LIMK2, P53671
GRID2IP_1, A4D2P6 = biological target: GRID2IP_1, A4D2P6
MPDZ_5, O75970 = biological target: T9, MPDZ_5, O75970
PCLO, Q9Y6V0 = biological target: T10, PCLO, Q9Y6V0
Inadl_3, Q8NI35 = biological target: Inadl_3, Q8NI35
MPDZ_10, O75970 = biological target: T11, MPDZ_10, O75970
RADIL, Q96JH8 = biological target: T12, RADIL, Q96JH8
PARD3B_1, Q8TEW8 = biological target: T13, PARD3B_1, Q8TEW8
PDZRN4_1, Q6ZMN7 = biological target: PDZRN4_1, Q6ZMN7
PDZRN4_1, Q6ZMN7, sequence (Q6ZMN7 213-318): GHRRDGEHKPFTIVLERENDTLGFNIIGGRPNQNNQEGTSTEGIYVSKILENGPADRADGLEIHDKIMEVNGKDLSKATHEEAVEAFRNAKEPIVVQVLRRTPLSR

Inadl_3, Q8NI35, sequence (Q8NI35 359-469): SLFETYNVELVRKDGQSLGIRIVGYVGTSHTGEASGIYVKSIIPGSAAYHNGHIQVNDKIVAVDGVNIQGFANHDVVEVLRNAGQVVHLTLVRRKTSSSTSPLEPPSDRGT
LNX1_1, Q8TBB1, sequence (Q8TBB1 261-371): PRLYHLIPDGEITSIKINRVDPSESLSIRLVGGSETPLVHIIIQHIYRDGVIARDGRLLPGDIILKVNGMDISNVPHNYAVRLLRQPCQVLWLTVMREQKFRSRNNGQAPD
GRID2IP_1, A4D2P6, sequence (A4D2P6 1-87): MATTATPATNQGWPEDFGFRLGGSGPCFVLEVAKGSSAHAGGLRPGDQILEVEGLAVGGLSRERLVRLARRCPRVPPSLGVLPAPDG
FRMPD2_3, Q68DX3, sequence (Q68DX3 1073-1166): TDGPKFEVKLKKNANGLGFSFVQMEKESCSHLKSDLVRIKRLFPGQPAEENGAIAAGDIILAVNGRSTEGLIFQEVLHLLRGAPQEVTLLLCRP
CASK, O14936, sequence (O14936 487-570): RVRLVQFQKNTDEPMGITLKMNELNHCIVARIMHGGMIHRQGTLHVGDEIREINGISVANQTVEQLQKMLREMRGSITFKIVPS
MAGI2_4, Q86UL8, sequence (Q86UL8 772-865): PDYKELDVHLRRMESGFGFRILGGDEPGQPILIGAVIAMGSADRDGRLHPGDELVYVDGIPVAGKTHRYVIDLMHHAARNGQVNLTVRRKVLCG
IL16_1, Q14005, sequence (Q14005 210-306): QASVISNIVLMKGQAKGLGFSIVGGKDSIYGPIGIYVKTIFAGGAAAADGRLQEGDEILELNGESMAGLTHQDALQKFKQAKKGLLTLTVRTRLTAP
DLG4_2, P78352, sequence (P78352 155-259): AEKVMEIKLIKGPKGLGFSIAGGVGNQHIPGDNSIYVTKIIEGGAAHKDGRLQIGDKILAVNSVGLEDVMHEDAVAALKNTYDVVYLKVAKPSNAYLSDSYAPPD
LIMK2, P53671, sequence (P53671 143-248): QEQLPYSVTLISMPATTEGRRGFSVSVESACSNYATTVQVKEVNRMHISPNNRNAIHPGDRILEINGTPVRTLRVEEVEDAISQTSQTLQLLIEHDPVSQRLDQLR
MAGI1_2, Q96QZ7, sequence (Q96QZ7 456-580): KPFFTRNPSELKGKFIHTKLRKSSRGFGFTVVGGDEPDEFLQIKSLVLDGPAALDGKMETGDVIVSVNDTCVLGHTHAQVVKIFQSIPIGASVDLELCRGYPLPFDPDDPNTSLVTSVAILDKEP

Binder | pKd (MAGI1_2, Q96QZ7) | pKd (MAGI2_4, Q86UL8) | pKd (LNX1_1, Q8TBB1) | pKd (CASK, O14936) | pKd (LNX2_2, Q8N448) | pKd (FRMPD2_3, Q68DX3) | pKd (GRIP1_3, Q9Y3R0) | pKd (PDZD7_3, Q9H5P4) | pKd (DLG4_2, P78352) | pKd (IL16_1, Q14005) | pKd (SNTA1, Q13424) | pKd (APBA3_1, O96018) | pKd (SHANK1, Q9Y566) | pKd (DVL3, Q92997) | pKd (SNTG1, Q9NSN8) | pKd (LIMK2, P53671) | pKd (GRID2IP_1, A4D2P6) | pKd (MPDZ_5, O75970) | pKd (PCLO, Q9Y6V0) | pKd (Inadl_3, Q8NI35) | also measured
TGLWKSETTV [ADGRA2, Q96PE1] | 4.92 | 4.88 | below the threshold | below the threshold | 4.98 | below the threshold | below the threshold | 4.65 | 5.22 | 3.77 | 4.41 | below the threshold | below the threshold | below the threshold | 4.21 | below the threshold | below the threshold | below the threshold | below the threshold | 3.97 | pKd (MPDZ_10, O75970): below the threshold; pKd (RADIL, Q96JH8): 3.95; pKd (PARD3B_1, Q8TEW8): below the threshold; pKd (PDZRN4_1, Q6ZMN7): 4.24
EWTDERQSKV [GAB3, Q8WWW8] | below the threshold | below the threshold | 3.52 | below the threshold | below the threshold | 3.55 | below the threshold | 3.82 | 4.03 | 3.97 | 4.43 | below the threshold | 3.88 | below the threshold | 3.97 | below the threshold | below the threshold | below the threshold | below the threshold | below the threshold | pKd (MPDZ_10, O75970): 3.75; pKd (RADIL, Q96JH8): 3.61; pKd (PARD3B_1, Q8TEW8): below the threshold; pKd (PDZRN4_1, Q6ZMN7): 3.86
ASGLDKRDYV [CLDN9, O95484] | below the threshold | below the threshold | below the threshold | below the threshold | 3.92 | below the threshold | below the threshold | below the threshold | below the threshold | below the threshold | below the threshold | below the threshold | below the threshold | below the threshold | below the threshold | below the threshold | below the threshold | below the threshold | below the threshold | below the threshold | pKd (MPDZ_10, O75970): below the threshold; pKd (RADIL, Q96JH8): 4.08; pKd (PARD3B_1, Q8TEW8): below the threshold; pKd (PDZRN4_1, Q6ZMN7): below the threshold

More lines, main results first:

pKd (MAGI1_2, Q96QZ7) | pKd (MAGI2_4, Q86UL8) | pKd (LNX1_1, Q8TBB1) | pKd (CASK, O14936) | pKd (LNX2_2, Q8N448) | pKd (FRMPD2_3, Q68DX3) | pKd (GRIP1_3, Q9Y3R0) | pKd (PDZD7_3, Q9H5P4) | pKd (DLG4_2, P78352) | pKd (IL16_1, Q14005) | pKd (SNTA1, Q13424) | pKd (APBA3_1, O96018) | pKd (SHANK1, Q9Y566) | pKd (DVL3, Q92997) | pKd (SNTG1, Q9NSN8) | pKd (LIMK2, P53671) | pKd (GRID2IP_1, A4D2P6) | pKd (MPDZ_5, O75970) | pKd (PCLO, Q9Y6V0) | pKd (Inadl_3, Q8NI35) | Binder | also measured
below the threshold | below the threshold | below the threshold | below the threshold | below the threshold | below the threshold | below the threshold | 4.66 | 3.59 | below the threshold | 4.04 | below the threshold | 4.14 | below the threshold | below the threshold | below the threshold | below the threshold | below the threshold | below the threshold | below the threshold | NPETRDETQL [KCNT1, Q5JUK3] | pKd (MPDZ_10, O75970): below the threshold; pKd (RADIL, Q96JH8): below the threshold; pKd (PARD3B_1, Q8TEW8): 3.92; pKd (PDZRN4_1, Q6ZMN7): 4.69
below the threshold | below the threshold | below the threshold | below the threshold | below the threshold | below the threshold | below the threshold | 3.97 | below the threshold | below the threshold | below the threshold | below the threshold | 4.17 | below the threshold | below the threshold | below the threshold | below the threshold | below the threshold | below the threshold | below the threshold | FTLPAESSEI [PLEKHG7, Q6ZR37] | pKd (MPDZ_10, O75970): below the threshold; pKd (RADIL, Q96JH8): below the threshold; pKd (PARD3B_1, Q8TEW8): below the threshold; pKd (PDZRN4_1, Q6ZMN7): below the threshold
below the threshold | below the threshold | below the threshold | below the threshold | below the threshold | 3.54 | below the threshold | 3.9 | 4.22 | 4.49 | 4.25 | below the threshold | below the threshold | below the threshold | 4.65 | below the threshold | below the threshold | below the threshold | below the threshold | below the threshold | PDSNPEESSV [SEMA4C, Q9C0C4] | pKd (MPDZ_10, O75970): below the threshold; pKd (RADIL, Q96JH8): below the threshold; pKd (PARD3B_1, Q8TEW8): below the threshold; pKd (PDZRN4_1, Q6ZMN7): 4.43
